Results taken from patent US20120058118A1 (Boehringer Ingelheim, published 2012).

Key:
[1] = target: T1, human A-beta(1-40) peptide, monomeric (BAM) (human, biotin at the C-terminus in capture ELISA, SPR and TR-FRET; not biotinylated where coated directly (Example 7)); assay: TR-FRET competition, mean IC50
T1 construct: synthetic peptide (Anaspec), TFA/HFIP treated to give monomer; also called monomeric A-beta

[2] = target: T1, human A-beta(1-40) peptide, monomeric …; assay: TR-FRET competition; labelled competitor not given
[3] = target: T1, human A-beta(1-40) peptide, monomeric …; assay: TR-FRET competition, labelled ABII42D4

| Binder | IC50 [1] [nM] | IC50 [2] [nM] | IC50 [3] [nM] |
| --- | --- | --- | --- |
| ABII014 (VHH, humanized variant of ABII002) VHH: EVQLLESGGGLVLPGGSLRLSCVHSGPTFRTDTMGWFRQAPGKGREFVAAVTWNSGRINYADSVKGRFTVSRDNTRNAAYLQMSGLRDEDTAVYYCTAHRFVVGGNRVEDWRYWGQGTLVTVSS | 1.3 | 1.3 |  |
| ABII021 (VHH, humanized variant of ABII002) VHH: EVQLLESGGGLVQPGGSLRLSCAHSGPTFRTDTMGWFRQAPGKGREFVAAVTWNSGRINYADSVKGRFTISRDNSKNAVYLQMNSLRPEDTAVYYCAAHRFVVGGNRVEDWRYWGQGTLVTVSS | 24 | 24 |  |
| ABII028 (VHH, humanized variant of ABII002) VHH: EVQLLESGGGLVQPGGSLRLSCVHSGPTFRTDTMGWFRQAPGKGREFVAAVTWNSGRINYADSVKGRFTISRDNSKNTVYLQMNSLRPEDTAVYYCAAHRFVVGGNRVEDWRYWGQGTLVTVSS | 11 | 11 |  |
| ABII022 (VHH, humanized variant of ABII002) VHH: EVQLLESGGGLVQPGGSLRLSCAHSGPTFRTDTMGWFRQAPGKGREFVAAVTWNSGRINYADSVKGRFTISRDNSKNAVYLQMSSLRPEDTAVYYCAAHRFVVGGNRVEDWRYWGQGTLVTVSS | 16 | 16 |  |
| ABII027 (VHH, humanized variant of ABII002) VHH: EVQLLESGGGLVQPGGSLRLSCAHSGPTFRTDTMGWFRQAPGKGREFVAAVTWNSGRINYADSVKGRFTISRDNSKNTAYLQMSSLRPEDTAVYYCAAHRFVVGGNRVEDWRYWGQGTLVTVSS | 4.4 | 4.4 |  |
| ABII025 (VHH, humanized variant of ABII002) VHH: EVQLLESGGGLVQPGGSLRLSCAHSGPTFRTDTMGWFRQAPGKGREFVAAVTWNSGRINYADSVKGRFTISRDNSKNTVYLQMSSLRPEDTAVYYCAAHRFVVGGNRVEDWRYWGQGTLVTVSS | 18 | 18 |  |
| ABII026 (VHH, humanized variant of ABII002) VHH: EVQLLESGGGLVQPGGSLRLSCAHSGPTFRTDTMGWFRQAPGKGREFVAAVTWNSGRINYADSVKGRFTISRDNSKNTAYLQMNSLRPEDTAVYYCAAHRFVVGGNRVEDWRYWGQGTLVTVSS | 5.1 | 5.1 |  |
| ABII023 (VHH, humanized variant of ABII002) VHH: EVQLLESGGGLVQPGGSLRLSCAHSGPTFRTDTMGWFRQAPGKGREFVAAVTWNSGRINYADSVKGRFTISRDNSKNAAYLQMNSLRPEDTAVYYCAAHRFVVGGNRVEDWRYWGQGTLVTVSS | 5.8 | 5.8 |  |
| ABII024 (VHH, humanized variant of ABII002) VHH: EVQLLESGGGLVQPGGSLRLSCAHSGPTFRTDTMGWFRQAPGKGREFVAAVTWNSGRINYADSVKGRFTISRDNSKNAAYLQMSSLRPEDTAVYYCAAHRFVVGGNRVEDWRYWGQGTLVTVSS | 6 | 6 |  |
| ABII030 (VHH, humanized variant of ABII002) VHH: EVQLLESGGGLVQPGGSLRLSCVHSGPTFRTDTMGWFRQAPGKGREFVAAVTWNSGRINYADSVKGRFTISRDNSKNAVYLQMNSLRPEDTAVYYCAAHRFVVGGNRVEDWRYWGQGTLVTVSS | 12 | 12 |  |
| ABII029 (VHH, humanized variant of ABII002) VHH: EVQLLESGGGLVQPGGSLRLSCVHSGPTFRTDTMGWFRQAPGKGREFVAAVTWNSGRINYADSVKGRFTISRDNSKNTLYLQMNSLRPEDTAVYYCAAHRFVVGGNRVEDWRYWGQGTLVTVSS | 89 | 89 |  |
| ABII018 (VHH, humanized variant of ABII002) VHH: EVQLLESGGGLVQPGGSLRLSCVHSGPTFRTDTMGWFRQAPGKGREFVAAVTWNSGRINYADSVKGRFTVSRDNTRNAAYLQMSGLKPEDTAVYYCTAHRFVVGGNRVEDWRYWGQGTLVTVSS | 3.2 | 3.2 |  |
| ABII016 (VHH, humanized variant of ABII002) VHH: EVQLLESGGGLVLPGGSLRLSCVHSGPTFRTDTMGWFRQAPGKGREFVAAVTWNSGRINYADSVKGRFTVSRDNTRNAAYLQMSGLKPEDTAVYYCTAHRFVVGGNRVEDWRYWGQGTLVTVSS | 2.4 | 2.4 |  |
| ABII015 (VHH, humanized variant of ABII002) VHH: EVQLLESGGGLVLPGGSLRLSCVHSGPTFRTDTMGWFRQAPGKGREFVAAVTWNSGRINYADSVKGRFTVSRDNTRNAAYLQMSGLKAEDTAVYYCTAHRFVVGGNRVEDWRYWGQGTLVTVSS | 1.8 | 1.8 |  |
| ABII017 (VHH, humanized variant of ABII002) VHH: EVQLLESGGGLVLPGGSLRLSCVHSGPTFRTDTMGWFRQAPGKGREFVAAVTWNSGRINYADSVKGRFTVSRDNTRNAAYLQMSGLKDEDTAVYYCAAHRFVVGGNRVEDWRYWGQGTLVTVSS | 2.4 | 2.4 |  |
| ABII019 (VHH, humanized variant of ABII002) VHH: EVQLLESGGGLVQPGGSLRLSCAHSGPTFRTDTMGWFRQAPGKGREFVAAVTWNSGRINYADSVKGRFTISRDNSKNTVYLQMNSLRPEDTAVYYCAAHRFVVGGNRVEDWRYWGQGTLVTVSS | 14 | 14 |  |
| ABII020 (VHH, humanized variant of ABII002) VHH: EVQLLESGGGLVQPGGSLRLSCAHSGPTFRTDTMGWFRQAPGKGREFVAAVTWNSGRINYADSVKGRFTISRDNSKNTLYLQMNSLRPEDTAVYYCAAHRFVVGGNRVEDWRYWGQGTLVTVSS | 110 | 110 |  |

Results, then the binder that gave them:

| IC50 [1] [nM] | IC50 [2] [nM] | IC50 [3] [nM] | Binder |
| --- | --- | --- | --- |
| 3.5 | 3.5 |  | ABII036 (VHH, humanized variant of ABII002) VHH: EVQLLESGGGLVQPGGSLRLSCVHSGPTFRTDTMGWFRQAPGKGREFVAAVTWNSGRINYADSVKGRFTISRDNSKNTAYLQMSSLRPEDTAVYYCAAHRFVVGGNRVEDWRYWGQGTLVTVSS |
| 4.9 | 4.9 |  | ABII032 (VHH, humanized variant of ABII002) VHH: EVQLLESGGGLVQPGGSLRLSCVHSGPTFRTDTMGWFRQAPGKGREFVAAVTWNSGRINYADSVKGRFTISRDNSKNAAYLQMNSLRPEDTAVYYCAAHRFVVGGNRVEDWRYWGQGTLVTVSS |
| 4 | 4 |  | ABII033 (VHH, humanized variant of ABII002) VHH: EVQLLESGGGLVQPGGSLRLSCVHSGPTFRTDTMGWFRQAPGKGREFVAAVTWNSGRINYADSVKGRFTISRDNSKNAAYLQMSSLRPEDTAVYYCAAHRFVVGGNRVEDWRYWGQGTLVTVSS |
| 13 | 13 |  | ABII031 (VHH, humanized variant of ABII002) VHH: EVQLLESGGGLVQPGGSLRLSCVHSGPTFRTDTMGWFRQAPGKGREFVAAVTWNSGRINYADSVKGRFTISRDNSKNAVYLQMSSLRPEDTAVYYCAAHRFVVGGNRVEDWRYWGQGTLVTVSS |
| 10 | 10 |  | ABII034 (VHH, humanized variant of ABII002) VHH: EVQLLESGGGLVQPGGSLRLSCVHSGPTFRTDTMGWFRQAPGKGREFVAAVTWNSGRINYADSVKGRFTISRDNSKNTVYLQMSSLRPEDTAVYYCAAHRFVVGGNRVEDWRYWGQGTLVTVSS |
|  |  | 5 | ABII111B5_R30W (VHH, targeted mutant) VHH: EVQLVESGGGLVLAGGSLRLSCVHSGPTFWTDTMGWFRQAPGKEREFVAAVTWNSGRINYADSVKGRFTVSRDNTRNAAYLQMSGLKDEDTAVYYCTAHRFVVGGNMVEDWRYWGQGTQVTVSS |
|  |  | 5.3 | ABII111B5_R30K (VHH, targeted mutant) VHH: EVQLVESGGGLVLAGGSLRLSCVHSGPTFKTDTMGWFRQAPGKEREFVAAVTWNSGRINYADSVKGRFTVSRDNTRNAAYLQMSGLKDEDTAVYYCTAHRFVVGGNMVEDWRYWGQGTQVTVSS |
|  |  | 8.8 | ABII111E5cl1 (VHH, c-myc and (His)6 tags) VHH: EVQLVESGGGLVLAGGSLRLSCVHSGPTFLTDTMGWFRQAPGKEREFVAAVTWNSGRINYADSVKGRFTVSRDNTRNAAYLQMSGLKDEDTAVYYCTAHRFVVGGREVQDWRYWGQGTQVTVSS |
|  |  | 5.1 | ABIIPMP111B4 (VHH, c-myc and (His)6 tags) VHH: EVQLVESGGGLVLAGGSLRLSCVHSGPTFWTDTMGWFRQAPGKEREFVAAVTWSSGRANYADSVKGRFTVSRDNTRNAAYLQMSGLKDEDTAVYYCTAHRGVVGGWVVVDWRYWGQGTQVTVSS |
|  |  | 7.3 | ABII111B5_F101W (VHH, targeted mutant) VHH: EVQLVESGGGLVLAGGSLRLSCVHSGPTFRTDTMGWFRQAPGKEREFVAAVTWNSGRINYADSVKGRFTVSRDNTRNAAYLQMSGLKDEDTAVYYCTAHRWVVGGNMVEDWRYWGQGTQVTVSS |
|  |  | 9.2 | ABII111B5_N106T (VHH, targeted mutant) VHH: EVQLVESGGGLVLAGGSLRLSCVHSGPTFRTDTMGWFRQAPGKEREFVAAVTWNSGRINYADSVKGRFTVSRDNTRNAAYLQMSGLKDEDTAVYYCTAHRFVVGGTMVEDWRYWGQGTQVTVSS |
|  |  | 4.7 | ABII111B5_E109W (VHH, targeted mutant) VHH: EVQLVESGGGLVLAGGSLRLSCVHSGPTFRTDTMGWFRQAPGKEREFVAAVTWNSGRINYADSVKGRFTVSRDNTRNAAYLQMSGLKDEDTAVYYCTAHRFVVGGNMVWDWRYWGQGTQVTVSS |
|  |  | 10 | ABII111B5_N106V (VHH, targeted mutant) VHH: EVQLVESGGGLVLAGGSLRLSCVHSGPTFRTDTMGWFRQAPGKEREFVAAVTWNSGRINYADSVKGRFTVSRDNTRNAAYLQMSGLKDEDTAVYYCTAHRFVVGGVMVEDWRYWGQGTQVTVSS |
